Measured values: US20020037999

System: p54 SAPKβ (JNK3) fused to the WIN-ZIP B1 leucine zipper and Myc tag

Substance | tyrosine phosphorylation of p54 (anti-Myc immunoprecipitates probed with anti-PTyr)
v-Src fused at the N-terminus with HA tag alone | p54 is phosphorylated on tyrosine only when the WIN-ZIP A1-Src fusion is present (so not with v-Src carrying the HA tag alone)
v-Src fused at the N-terminus with HA tag plus WIN-ZIP A1 leucine zipper | p54 is phosphorylated on tyrosine only when the WIN-ZIP A1-Src fusion is present
